Positions count from the first letter of the chain named.
How the values were obtained:
[1] = target: T1, Complex I with gH D446N, on virions of HB1 - mutant virus 4 (HCMV, UniProt P12824 24-743; P16832 31-278; P16837 28-171; F5HCP3 26-214; F5HET4 19-129); assay: cell-based or functional assay
T1 chain 1: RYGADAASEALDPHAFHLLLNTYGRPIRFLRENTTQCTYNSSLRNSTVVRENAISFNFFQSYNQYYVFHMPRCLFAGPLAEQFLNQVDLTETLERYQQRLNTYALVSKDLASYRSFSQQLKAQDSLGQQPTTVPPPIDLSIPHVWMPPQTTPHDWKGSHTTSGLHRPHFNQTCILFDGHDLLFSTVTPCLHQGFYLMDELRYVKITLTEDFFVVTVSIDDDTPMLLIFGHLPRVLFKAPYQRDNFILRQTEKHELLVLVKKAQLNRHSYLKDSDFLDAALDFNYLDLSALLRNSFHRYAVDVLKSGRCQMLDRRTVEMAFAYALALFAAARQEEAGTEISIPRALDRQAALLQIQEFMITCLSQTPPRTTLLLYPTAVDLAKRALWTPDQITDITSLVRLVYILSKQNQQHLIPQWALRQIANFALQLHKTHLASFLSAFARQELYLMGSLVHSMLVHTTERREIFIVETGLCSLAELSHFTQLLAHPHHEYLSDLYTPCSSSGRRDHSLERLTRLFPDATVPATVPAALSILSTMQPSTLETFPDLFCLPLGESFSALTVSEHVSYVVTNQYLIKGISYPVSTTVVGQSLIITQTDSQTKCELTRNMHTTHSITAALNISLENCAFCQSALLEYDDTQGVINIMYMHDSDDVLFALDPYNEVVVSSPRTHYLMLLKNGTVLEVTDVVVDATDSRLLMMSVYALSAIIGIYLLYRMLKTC
T1 chain 2: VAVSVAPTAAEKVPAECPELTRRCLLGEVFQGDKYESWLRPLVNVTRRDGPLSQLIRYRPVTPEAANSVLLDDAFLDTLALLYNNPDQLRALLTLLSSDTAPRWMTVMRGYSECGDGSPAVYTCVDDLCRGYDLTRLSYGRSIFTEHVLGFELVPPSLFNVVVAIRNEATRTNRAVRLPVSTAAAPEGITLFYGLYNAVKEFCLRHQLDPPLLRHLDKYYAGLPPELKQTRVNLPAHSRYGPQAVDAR
T1 chain 3: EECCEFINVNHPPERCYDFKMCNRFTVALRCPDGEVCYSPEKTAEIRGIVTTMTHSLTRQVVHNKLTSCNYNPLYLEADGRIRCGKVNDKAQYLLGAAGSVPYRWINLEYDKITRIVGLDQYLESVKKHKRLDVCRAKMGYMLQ
T1 chain 4: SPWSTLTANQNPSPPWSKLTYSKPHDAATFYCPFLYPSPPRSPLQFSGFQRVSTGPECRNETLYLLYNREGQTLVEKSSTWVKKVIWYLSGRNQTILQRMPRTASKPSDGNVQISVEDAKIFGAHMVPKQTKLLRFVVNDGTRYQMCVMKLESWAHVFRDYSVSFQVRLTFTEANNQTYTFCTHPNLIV
T1 chain 5: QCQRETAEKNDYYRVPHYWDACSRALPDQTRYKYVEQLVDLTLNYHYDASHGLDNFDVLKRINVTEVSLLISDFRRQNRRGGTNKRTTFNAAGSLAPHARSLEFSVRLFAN

[2] = target: T2, Complex I with gH W168C, on virions of HB1 - mutant viruses 2 and 5 (HCMV, UniProt P12824 24-743; P16832 31-278; P16837 28-171; F5HCP3 26-214; F5HET4 19-129); assay: cell-based or functional assay
T2 chain 1: T1 chain 1 with W145C, N423D
T2 chain 2: T1 chain 2
T2 chain 3: T1 chain 3
T2 chain 4: T1 chain 4
T2 chain 5: T1 chain 5

B1: hu8G8 (lambda4 8G8 graft and hu8G8.VH1) (antibody, V domains shown)
VH: EVQLVQSGAEVKKPGASVKVSCKASGYTFTNYGMNWVRQAPGQGLEWIGWINTYTGEPTYADDFKGRVTITRDTSTSTAYLELSSLRSEDTAVYYCARSWYYVSNYWYFDVWGQGTLVTVSS
VL: SVLTQSPSASASLGASVKLTCTLSSQHSTYTIEWYQQQPGKGPRYLMKLKKDGSHSTGDGIPDRFSGSSSGADRYLTISNLQSEDEADYYCGVGDTIKEQFVYVFGGGTKLTVLG
notes: also called hu8G8 with VH1; Humanized 8G8 with VH1
hu8G8 EC50, neutralisation of HB1 - mutant virus 4, Data Set 2 [1]: 0.1 ng/mL
hu8G8 EC50, neutralisation of HB1 - mutant virus 2, Data Set 1 [2]: 8 ng/mL
hu8G8 EC50, neutralisation of HB1 - mutant virus 2, Data Set 2 [2]: 6 ng/mL
hu8G8 EC50, neutralisation of HB1 - mutant virus 5, Data Set 2 [2]: 1 ng/mL
